Laboratory results from patent US20260274955A1 (JANUX THERAPEUTICS, published 2026).

What was measured:
[1] = target: T1, Anti-CD28 Fab (SEQ ID NOs: 202, 203); assay: phage binding ELISA, Fab on plate;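 further: clonal phage supernatant ELISA, wells preincubated with CD28 antigen or blocking buffer only, then bound phage detected using HRP-linked anti-M13 antibody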
T1 construct: biotinylated and captured on neutravidin coated plates in the phage ELISA
T1 sequence (VH, as listed by the source, chain 1 of 2): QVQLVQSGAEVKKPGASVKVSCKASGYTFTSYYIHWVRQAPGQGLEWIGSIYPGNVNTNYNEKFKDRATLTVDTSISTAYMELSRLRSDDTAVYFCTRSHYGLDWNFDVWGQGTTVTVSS
T1 sequence (VL, as listed by the source, chain 2 of 2): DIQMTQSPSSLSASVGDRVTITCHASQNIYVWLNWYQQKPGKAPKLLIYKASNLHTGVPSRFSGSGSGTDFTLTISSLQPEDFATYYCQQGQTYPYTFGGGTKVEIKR
Protocol: After panning, phage infected bacteria were plated out and colonies picked into 96 well blocks. Clonal phage was then amplified and separated from bacterial cells via centrifugation.
Clonal phage were harvested as crude supernatants and screened via standard ELISAs. […] Prior to the addition of clonal phage, wells were incubated with blocking buffer and CD28 antigen or blocking buffer alone. Without washing or aspirating, clonal phage supernatants were then added to the wells and incubated for a short time. Wells were then washed followed by detection of bound phage using a horse radish conjugated anti-M13 antibody. Clonal phage of interest were then sent for sequence analysis.

[2] = target: Anti-CD28 Fab (SEQ ID NOs: 202, 203); assay: phage binding ELISA on captured Fab;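 further: clonal phage supernatants added briefly to wells pre-incubated with CD28 antigen or with blocking buffer only, then washed, bound phage read by ELISA using HRP-coupled anti-M13 antibody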
Target sequence in this assay (VH, as listed by the source, chain 1 of 2): as the sequence (VH, as listed by the source, chain 1 of 2) above
Target sequence in this assay (VL, as listed by the source, chain 2 of 2): as the sequence (VL, as listed by the source, chain 2 of 2) above
Protocol: Clonal phage were harvested as crude supernatants and screened via standard ELISAs. […] Prior to the addition of clonal phage, wells were incubated with blocking buffer and CD28 antigen or blocking buffer alone. Without washing or aspirating, clonal phage supernatants were then added to the wells and incubated for a short time. Wells were then washed followed by detection of bound phage using a horse radish conjugated anti-M13 antibody.

Binder	Anti-CD28 Fab (SEQ ID NOs: 202, 203) signal [1]	Anti-CD28 Fab signal [2]
TCAAGAHWIWPWCE [Phage-1066]	1.61	–
TCAAGAHYEWPMCY [Phage-1063]	1.61	–
TCSAGANYEWPWCF [Phage-1062]	1.62	–
SCAAVFPYPWPPCF [Phage-1030]	1.75	–
TCAAGATYEWPTCL [Phage-983]	1.96	–
YCDGHLPLYLAKCL [Phage-133]	–	2.23
YCDGHLPQYMNKCL [Phage-134]	–	2.23
YCDGHSAEYMAKCL [Phage-137]	–	2.23
YCEGHSPEYMYKCL [Phage-138]	–	2.23
YCDGHAKEYMWKCL [Phage-102]	–	2.3
YCEGHSAQYMSKCL [Phage-105]	–	2.29
TCAAGANYPWPLCL [Phage-1027]	1.75	–
GCAAGANYPWPLCL [Phage-1069]	1.59	–
LCSAGAMYQWPTCL [Phage-1061]	1.63	–
LCSAGAMWQWPTCL [Phage-1097]	1.51	–
WCAAVFSYSWPLCL [Phage-1032]	1.75	–
TCSAGFSLQLSICL [Phage-1022]	1.77	–
LCEEFFHYSWPVCL [Phage-1034]	1.74	–
YCDGHSREYIAKCL [Phage-106]	–	2.29
WCTAGFSYKLSICL [Phage-1060]	1.63	–
TCAAGAYYAWPMCL [Phage-1070]	1.59	–
SCSAVFSYAWPTCL [Phage-1064]	1.61	–
LCKPGVPYQWPTCL [Phage-1018]	1.78	–

Binder	Anti-CD28 Fab (SEQ ID NOs: 202, 203) signal [1]	Anti-CD28 Fab signal [2]
YCSAGAQWPWPICL [Phage-1014]	1.79	–
SCAAGASYSWPACF [Phage-1016]	1.79	–
YCDGHLPEYREKCF [Phage-86]	–	2.32
MCSAGATYPWPMCL [Phage-1037]	1.73	–
MCSAGATYPWPYCL [Phage-1057]	1.64	–
WCAEFFNYHWPLCF [Phage-1021]	1.77	–
YCEGHSSEYMLKCL [Phage-103]	–	2.3
GCAAGAHYPWPFCL [Phage-1025]	1.76	–
TCAAGATYPWPSCL [Phage-1038]	1.73	–
TCAAGATWPWPSCL [Phage-1065]	1.61	–
TCAAGAGWQWPMCF [Phage-1067]	1.6	–
YCDGHSMEYMSKCL [Phage-139]	–	2.22
GCAAGFHYPWPLCL [Phage-1033]	1.74	–
LCSAGATYPWPWCM [Phage-1058]	1.64	–
TCAAGAAWPWPHCL [Phage-1035]	1.73	–
YCDGHAPQYMRKCL [Phage-101]	–	2.3
SCAAGATYEWPRCL [Phage-1068]	1.6	–
SCAAGATYEWPICL [Phage-1074]	1.59	–
MCAAGAMYAWPTCL [Phage-1028]	1.75	–
YCQGHLPMYMEKCL [Phage-80]	–	2.34
YCQGHLPMYMAKCL [Phage-77]	–	2.34
YCEGHLPMYMDKCL [Phage-140]	–	2.22
YCQGHLPIYMEKCL [Phage-132]	–	2.24

Binder	Anti-CD28 Fab (SEQ ID NOs: 202, 203) signal [1]	Anti-CD28 Fab signal [2]
PCAAGAMWPWPVCL [Phage-986]	1.95	–
TCAAGASFPWPWCL [Phage-1029]	1.75	–
YCEGHLPEYMQKCM [Phage-136]	–	2.23
TCAAGAVWGWPLCF [Phage-1039]	1.73	–
TCAAGAVWEWPMCF [Phage-1026]	1.76	–
YCEGHSWANLGKCL [Phage-85]	–	2.32
MCTAGALYNWPTCL [Phage-1019]	1.78	–
TCAAGATYEWPYCF [Phage-980]	1.96	–
TCAAGAAYTWPACF [Phage-982]	1.96	–
WCAAVFSYTWSPCL [Phage-981]	1.96	–
TCAAGAHYPWPYCL [Phage-1020]	1.77	–
WCAAGATWPWPLCI [Phage-1042]	1.7	–
RCRAGFSYNWPYCM [Phage-1041]	1.72	–
SCAAGASYPWPQCL [Phage-1023]	1.77	–
TCSAGAMYPWPWCV [Phage-1031]	1.75	–
LCTAGLAYNWPTCL [Phage-1024]	1.77	–
DCWGDAPYPWRVCL [Phage-1059]	1.64	–
SCSAGFHYPWPICL [Phage-1017]	1.79	–
TCAAGAHYAWPECF [Phage-1040]	1.72	–
TCAAGASYQWPLCF [Phage-1015]	1.79	–
SCAAGAPYPWPECL [Phage-1071]	1.59	–
